Measured values: patent US11098081B2, “Epitope tag and method for detection and/or purification of tagged polypeptides” (ChromoTek GmbH, priority 2015, dated 2021)
Where “and” joins values, the source holds several entries; their conditions need not be identical. Equal entries are not always repeated.

T1: full-length β-catenin or domains (N-terminus aa 1-119, armadillo domain, C-terminus) (Homo sapiens, UniProt P35222)
T1 construct: full-length β-catenin or the following domains of β-catenin: N-terminus aa 1-119; made in house; host or cells: E. coli BL21(DE3) CodonPlus-RIL
T1 sequence (P35222 1-119): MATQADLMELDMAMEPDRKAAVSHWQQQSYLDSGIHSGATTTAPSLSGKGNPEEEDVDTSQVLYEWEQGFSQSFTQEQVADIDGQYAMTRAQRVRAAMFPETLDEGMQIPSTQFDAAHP

B1: BC2-Nb: nanobody; variable region of a heavy chain antibody of Camelidae, 122 aa, SEQ ID NO: 6, binds the BC2 epitope tag (protein)
VHH: QVQLVESGGGLVQPGGSLTLSCTASGFTLDHYDIGWFRQAPGKEREGVSCINNSDDDTYYADSVKGRFTIFMDNAKDTVYLQMNSLKPEDTAIYYCAEARGCKRGRYEYDFWGQGTQVTVSS
modifications: BC2-Nb
B2: BC2-NbAF488: BC2-Nb chemically coupled to the organic dye AlexaFluor488 (conjugate)
VHH: B1 VHH
modifications: left off: small tags and cut ends
notes: BC2-Nb chemically coupled to the organic dye AlexaFluor488
B3: BC2-NbATTO647: BC2-Nb coupled to the organic dye ATTO647 (conjugate)
VHH: B1 VHH
modifications: left off: small tags and cut ends
notes: BC2-Nb coupled to the organic dye ATTO647

What was measured:
[1] = target: T1, full-length β-catenin or domains (N-terminus aa 1-119, armadillo domain, C-terminus); assay: Domain mapping of β-catenin binders (microsphere-based sandwich immunoassay); format: binding
Procedure: Microsphere-immobilized Nbs were incubated with GST-fusion constructs comprising full-length β-catenin or indicated domains. Captured β-catenin constructs were detected with domain-specific antibodies. For direct comparison, fluorescence intensities obtained with domain-specific antibodies were normalized to signals obtained with an anti-GST-antibody.
BC2-Nb was covalently immobilized on microspheres using a modified manufacturer's protocol described in Poetz et al. ((2009) Microsphere-based co-immunoprecipitation in multiplex. Analytical biochemistry 395, 244-248). Immobilized BC2-Nb was incubated with purified proteins representing full-length β-catenin or the following domains of β-catenin: N-terminus aa 1-119, armadillo domain aa 120-683 and C-terminus aa 683-781. Purified Glutathion-S-transferase (GST) was used as a negative control. Concentrations range from 0.25 μg/ml to 2 μg/ml. Bound proteins were detected with domain-specific antibodies including ABC antibody clone 8E7 (Merck Millipore) specific for the N-terminus, anti-β-catenin 9G10 (Merck Millipore) targeting the armadillo domain and anti-β-catenin clone 14 (Becton Dickinson) specifically recognizing the C-terminus. To detect unspecific binding of the BC2-Nb to GST an antibody against GST (6G9, ChromoTek) was used. […] The microspheres were measured in a FlexMap 3D instrument (Luminex). […]

[2] = target: GFP with a C-terminal BC2-tag (GFPBC2T) (Aequorea victoria, UniProt P42212, F64L/H231L/S65T)
Procedure: For surface plasmon resonance spectroscopy (SPR)-based affinity measurements. […] The obtained data sets were evaluated using the 1:1 Langmuir binding model with mass transfer. As a control.
The affinity measurements of the BC2 nanobody and the indicated mutants thereof to GFPBC2T were performed using surface plasmon resonance spectroscopy with a Biacore 3000 instrument (GE-Healthcare). GFPBC2T was covalently coupled on dextran fibers of a CM5 sensorchip (GE Healthcare) to a response level of 500 RU. One flow cells was activated and blocked in the absence of protein to determine background, another was loaded with untagged GFP as a control against unspecific binding. […] Each measurement was done in duplicates. As running dilution buffer 10 mM HEPES pH 7.4, 150 mM NaCl, 0.5% surfactant Tween was used. Measurements were performed at 25° C. For the association of BC2-Nb a How rate of 50 μl/min for 15 s and for the dissociation a flow rate of 50 μl/min for 600 s was applied. The regeneration was induced by injection of 23 μl regeneration solution at a flow rate of 30 μl/min. As regeneration solution 10 mM glycine-HCl pH 2.0 was used. The data was evaluated using the software Bia evaluation 4.1 and the 1:1 Langmuir binding model with mass transfer.

[3] = test system: peptides of the β-catenin N-terminus (aa 1-127); assay: Epitope mapping (pepscan) with biotinylated BC2-Nb on peptide-coated microspheres; format: binding, human
Description: (SEQ ID NO: 4), […] […] (SEQ ID NO: 65).
As negative controls, microspheres comprising Ovalbumin and the Myc-peptide ([…]) covalently coupled to OVA-microspheres were used.

[4] = test system: BC2-tagged proteins (eGFP-PCNABC2T, mCherry-VIMBC2T); assay: Western blot detection with fluorescently labeled BC2-Nb; format: binding
Procedure: (b) For Western blot detection using fluorescently labeled B2-Nb (BC2-NbAF488) indicated amounts of the input fractions (as shown in (a)) were subjected to SDS-PAGE and immunoblotting. The Western blots were probed with BC2-N488 followed by detection with anti-PCNA (left panel) or anti-Vimentin (right panel) antibodies. As loading control blots were probed with an anti-GAPDH antibody (lower panel).
Denaturing polyacrylamide gel electrophoresis (SDS-PAGE) was performed according to standard procedures Protein samples were boiled in 2× SDS-sample buffer (60 mM Tris/HCl, pH 6.8; 2% (w/v) SDS; 5% (v/v) 2-mercaploethanol, 10% (v/v) glycerol, 0.02% bromophenole blue). For immunoblotting proteins were transferred on nitrocellulose membranes (Bio-Rad Laboratories).
Purified BC2 nanobody (1 mg) was labeled with the NHS-activated fluorescent dyes Alexa488 (Life technologies) or Atto647 (Atto-Tec) according to manufacturer's guidelines. After coupling, unbound dye was removed by separation on PD-10 Desalting Columns (GE Healthcare). For immunoblot analysis. 5 μg of BC2-NbAF488 was diluted in 4 ml 3% BSA diluted in TBS, 0.05% Tween20 and Western blots were incubated for 1 h at RT.

[5] = test system: HeLa cells expressing mCherry-VIMBC2T or GFP-PCNABC2T; assay: Immunocytochemistry with fluorescently labeled BC2-Nb; format: cell-based, human; settings: mCherry-VIMBC2T (AF488) or GFP-PCNABC2T (ATTO647)
Description: (b) HeLa cells ectopically expressing mCherry-VIMBC2T or eGFP-PCNABC2T were fixed either with methanol or PFA, respectively, followed by staining with the indicated fluorescently labeled BC2-Nbs and DAPI. Scale bar 25 μm.
HeLa cells ectopically expressing untagged mCherry-VIM or eGFP-PCNA were fixed with methanol or PFA, respectively, and stained with the indicated fluorescently labeled BC2-Nbs and DAPI. Scale bar 25 μm.
For immunocytochemistry 5-10×10^3 adherent HeLa cells per well of a μClear 96 well plate (Greiner) were transfected with plasmids coding for C-terminally BC2-tagged vimentin or PCNA After 24 h, cells were washed once with PBS and fixed with 4% w/v paraformaldehyde (PFA) in PBS for 15 mm at RT or with methanol for 15 mm at −20° C. After removal of the fixative and washing twice with PBS, cells were blocked and permeabilized with 3% w/v BSA and 0.1% v/v Triton X-100 in PBS for 1 h at RT Subsequently, labeled BC2 nanobody was added with a final concentration of 10-15 μg/ml and 4′,6-diamidino-2-phenyl indole (DAPI, Sigma Aldrich) with a final concentration of 1 μg/ml for overnight incubation at 4° C. Unbound nanobody and DAPI were removed by washing 3 limes with a mixture of PBS and 6% v/v 5 M NaCl in H2O. Images of FIG. 4 b and FIG. 10 b were acquired with an Image Xpress micro XL system. Confocal images of FIG. 10 a were acquired with an ImageXpress Micro Confocal.

Row | Molecule | β-catenin domain recognized [1] | Rmax [RU] ([2]; SPR, GFPBC2T on CM5 chip, 1:1 Langmuir binding model with mass transfer) | Kd ([2]; SPR, GFPBC2T on CM5 chip, 25° C., 1:1 Langmuir binding model with mass transfer) | kon (M^−1s^−1) ([2]; SPR, association rate constant) | koff (s^−1) ([2]; SPR, dissociation rate constant) | fold higher affinity compared to FLAG, HA, c-myc or EPEA systems ([2]; comparison with literature values of prior-art tag systems) | binding to epitope peptide with phosphorylated Ser23 [3] | binding to overlapping 15-mer peptides ([3]; 29 peptides covering aa 1-127) | amino acid sequence recognized (minimal epitope) ([3]; N- and C-terminally truncated peptides) | signal for endogenous β-catenin in Western blot ([4]; in the presence of BC2-tagged proteins) | specificity in Western blot detection ([4]; untagged proteins not detected) | co-localization with BC2-tagged protein in fixed HeLa cells [5]
1 | B1 | exclusively recognizes the N-terminal domain (aa 1-119) | 170 ± 0.34 RU | 1.4 nM and ~1.4 nM | 4.6 ± 0.04 × 10^5 M^−1s^−1 | 6.4 ± 0.27 × 10^−4 s^−1 | 10-100 fold | completely abolishes binding | strong binding to two consecutive peptides comprising the residues 13-31 | PDRKAAVSHWQQ |  |  | 
2 | B2 |  |  |  |  |  |  |  |  |  | no signal for β-catenin was detected | highly specific for BC2-tagged proteins | strong co-localization
3 | B3 |  |  |  |  |  |  |  |  |  |  |  | clear co-localization
